Experimental data reported in publication PMC9368766 (2022).

Key:
T-Fc [1] = test: BLI; deglycosylated FGFR1-Fc
KCK-FGF1.E [2] = biological target: KCK-FGF1.E (UniProt P05230); test: BLI; deglycosylated FGFR1-Fc
T-Fc [3] = test: BLI
KCK-FGF1.E [4] = biological target: KCK-FGF1.E (UniProt P05230); test: BLI

| Kd (T-Fc [1]) [nM] | koff (T-Fc [1]) [s⁻¹] | koff (KCK-FGF1.E [2]) [s⁻¹] | Kd (T-Fc [3]) [nM] | Kd (KCK-FGF1.E [4]) [nM] | koff (KCK-FGF1.E [4]) [s⁻¹] | Binder |
| --- | --- | --- | --- | --- | --- | --- |
| 0.669 | 0.000448 | 0.00222 |  |  |  | de-glycosylated FGFR1-Fc (Fc fusion, N-glycans enzymatically removed with PNGase F) RPSPTLPEQAQPWGAPVEVESFLVHPGDLLQLRCRLRDDVQSINWLRDGVQLAESNRTRITGEEVEVQDSVPADSGLYACVTSSPSGSDTTYFSVNVSDALPSSEDDDDDDDSSSEEKETDNTKPNRMPVAPYWTSPEKMEKKLHAVPAAKTVKFKCPSSGTPNPTLRWLKNGKEFKPDHRIGGYKVRYATWSIIMDSVVPSDKGNYTCIVENEYGSINHTYQLDVVERSPHRPILQAGLPANKTVALGSNVEFMCKVYSDPQPHIQWLKHIEVNGSKIGPDNLPYVQILKTAGVNTTDKEMEVLHLRNVSFEDAGEYTCLAGNSIGLSHHSAWLTVLEALEERPAVMTSPLYLE |
|  |  |  | 0.246 | 3.19 | 0.000304 | Fully glycosylated extracellular domain of FGFR1 fused to the Fc fragment of human IgG1: FGFR1 IIIc (FGFR1-Fc) (Fc fusion, N-glycosylated (fully glycosylated)) RPSPTLPEQAQPWGAPVEVESFLVHPGDLLQLRCRLRDDVQSINWLRDGVQLAESNRTRITGEEVEVQDSVPADSGLYACVTSSPSGSDTTYFSVNVSDALPSSEDDDDDDDSSSEEKETDNTKPNRMPVAPYWTSPEKMEKKLHAVPAAKTVKFKCPSSGTPNPTLRWLKNGKEFKPDHRIGGYKVRYATWSIIMDSVVPSDKGNYTCIVENEYGSINHTYQLDVVERSPHRPILQAGLPANKTVALGSNVEFMCKVYSDPQPHIQWLKHIEVNGSKIGPDNLPYVQILKTAGVNTTDKEMEVLHLRNVSFEDAGEYTCLAGNSIGLSHHSAWLTVLEALEERPAVMTSPLYLE |
